Laboratory results published in patent US20120269817A1 (Bayer, published 2012).

What was measured:
[1] = target: T1, BSA (bovine, UniProt P02769 25-607); test: ELISA
T1 construct: also called bovine serum albumin
Procedure: (§1) To select antibody clones that bind to human TFPI, Fab genes of the phage clones from the second and third round of panning were subcloned into a bacterial expression vector and expressed in E. coli strain TG1. The bacterial lysate was added to the wells of the human TFPI-coated Maxisorp plates. After washing, HRP-conjugated goat anti-human Fab was used as a detection antibody and the plates were developed by adding AmplexRed (Invitrogen) with hydrogen peroxide. A signal of at least five-fold higher than the background was considered as positive. The cross reactivity of the anti-human TFPI antibodies to mouse TFPI was determined by a similar mouse TFPI-binding ELISA. The plates were coated with mouse TFPI (R&D System), BSA and lysozyme. The later two antigens were used as negative controls.

[2] = target: T2, mouse tissue factor pathway inhibitor (TFPI) (mouse, UniProt O54819 29-289, limits assumed); test: Biacore, TFPI on CM5 chip, Fab in mobile phase
T2 construct: Bought protein; also called mouse TFPI; mTFPI
T2 sequence (looked up): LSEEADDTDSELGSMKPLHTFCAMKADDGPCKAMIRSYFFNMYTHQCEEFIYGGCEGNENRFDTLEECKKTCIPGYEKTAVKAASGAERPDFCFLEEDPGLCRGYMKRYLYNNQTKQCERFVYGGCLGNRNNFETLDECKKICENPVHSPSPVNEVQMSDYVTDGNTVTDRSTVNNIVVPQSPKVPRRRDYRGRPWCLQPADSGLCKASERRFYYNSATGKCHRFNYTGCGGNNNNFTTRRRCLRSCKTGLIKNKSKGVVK
Procedure: (§2) Purified Fab antibodies were used to determine EC₅₀ of anti-TFPI antibodies to human or mouse TFPI. EC₅₀ was assessed in an ELISA, similarly as described above. The results were analyzed using SoftMax. The binding affinity of anti-TFPI antibodies was determined in a Biacore assay. Briefly, the antigen, either human or mouse TFPI, was immobilized on the CM5-chips using the amine coupling kit (GE HealthCare) according to the instructions of the manufacturer. The amount of immobilized TFPI was adjusted to the mass of the antigen to give approximate 300 RU. The antibody Fabs were analyzed in mobile phase and at least five different concentrations (0.1, 0.4, 1.6, 6.4 and 25 nM) of the purified antibodies were used in the Biacore assay. The kinetics and binding affinity were calculated using Biacore T100 Evaluation software.

[3] = target: T3, human tissue factor pathway inhibitor (TFPI) (human, UniProt P10646 29-304, limits assumed); test: Biacore, TFPI on CM5 chip, Fab in mobile phase
T3 construct: Bought protein; also called human TFPI; hTFPI
T3 sequence (looked up): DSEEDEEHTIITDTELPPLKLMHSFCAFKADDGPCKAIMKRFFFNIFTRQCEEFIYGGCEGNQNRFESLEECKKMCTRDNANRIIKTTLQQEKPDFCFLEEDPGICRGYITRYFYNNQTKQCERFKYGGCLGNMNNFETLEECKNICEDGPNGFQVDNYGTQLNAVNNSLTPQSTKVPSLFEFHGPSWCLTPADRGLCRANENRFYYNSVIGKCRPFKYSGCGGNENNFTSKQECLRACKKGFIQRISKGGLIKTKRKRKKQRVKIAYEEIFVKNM
Procedure: as §2

[4] = target: T2, mouse tissue factor pathway inhibitor …; test: ELISA, Fab on coated TFPI
Procedure: as §1, §2

[5] = target: T3, human tissue factor pathway inhibitor …; test: ELISA, Fab on coated TFPI
Procedure: as §1, §2

[6] = target: T3, human tissue factor pathway inhibitor …; test: cell-based or functional assay

T1 sequence (P02769 25-607 limits assumed): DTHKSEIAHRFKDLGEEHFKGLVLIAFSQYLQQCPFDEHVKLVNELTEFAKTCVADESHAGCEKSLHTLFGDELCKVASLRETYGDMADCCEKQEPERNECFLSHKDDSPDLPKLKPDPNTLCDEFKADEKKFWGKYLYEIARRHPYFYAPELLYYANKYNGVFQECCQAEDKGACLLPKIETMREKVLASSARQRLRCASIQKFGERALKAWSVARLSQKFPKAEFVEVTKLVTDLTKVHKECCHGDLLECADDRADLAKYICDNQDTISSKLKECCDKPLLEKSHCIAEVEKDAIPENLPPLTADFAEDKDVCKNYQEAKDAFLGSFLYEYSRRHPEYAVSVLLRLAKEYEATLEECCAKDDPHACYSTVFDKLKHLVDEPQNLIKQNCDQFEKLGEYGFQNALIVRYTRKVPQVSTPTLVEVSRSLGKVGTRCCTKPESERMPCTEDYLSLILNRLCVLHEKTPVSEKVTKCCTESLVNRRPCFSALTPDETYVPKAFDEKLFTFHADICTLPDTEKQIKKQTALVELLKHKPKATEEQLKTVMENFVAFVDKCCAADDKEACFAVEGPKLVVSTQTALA

Row | Binder | binding result [1] | Kd [2] [nM] | Kd [3] [nM] | EC50 [4] [nM] | EC50 [5] [nM] | % inhibition of hTFPI activity [6] [%] | dPT in hemoA plasma [6] [s]
1 | TP-2A2 Fab (Fab, V domains shown, Human Fab from HuCal Gold, expressed in E. coli TG1) VH: QVQLVESGGGLVQPGGSLRLSCAASGFTFSNNAMNWVRQAPGKGLEWVSTISYDGSNTYYADSVKGRFTISRDNSKNTLYLQMNSLRAEDTAVYYCARQAGGWTYSYTDVWGQGTLVTVSS VL: DIELTQPPSVSVAPGQTARISCSGDNIRTYYVHWYQQKPGQAPVVVIYGDSKRPSGIPERFSGSNSGNTATLTISGTQAEDEADYYCQSYDSEADSEVFGGGTKLTVLG | no binding | 29.8 | 6.57 | 1040 | 0.62 | 23 | 70.9
2 | TP-3C1 Fab (Fab, V domains shown, Human Fab from HuCal Gold, expressed in E. coli TG1; Shares its VL with TP-2G9 and its VH with TP-3F2) VH: QVQLVESGGGLVQPGGSLRLSCAASGFTFSSYSMHWVRQAPGKGLEWVSGISYSSSFTYYADSVKGRFTISRDNSKNTLYLQMNSLRAEDTAVYYCARALGGGVDYWGQGTLVTVSS VL: DIALTQPASVSGSPGQSITISCTGTSSDLGGFNTVSWYQQHPGKAPKLMIYSVSSRPSGVSNRFSGSKSGNTASLTISGLQAEDEADYYCQSYDLNNLVFGGGTKLTVLG | no binding | 33.6 | 21.6 | 108 | 32.8 | 0 | 72.3
3 | TP-2B3 Fab (Fab, V domains shown, Human Fab from HuCal Gold, expressed in E. coli TG1) VH: QVQLQQSGPGLVKPSQTLSLTCAISGDSVSSNSAAWGWIRQSPGRGLEWLGMIYYRSKWYNSYAVSVKSRITINPDTSKNQFSLQLNSVTPEDTAVYYCARTMSKYGGPGMDVWGQGTLVTVSS VL: DIVLTQSPATLSLSPGERATLSCRASQNIGSNYLAWYQQKPGQAPRLLIYGASTRATGVPARFNGSGSGTDFTLTISSLEPEDFAVYYCQQLNSIPVTFGQGTKVEIKR | no binding | 27 | 7.4 | 20.2 | 0.84 | 100 | 74
4 | TP-2E5 Fab (Fab, V domains shown, Human Fab from HuCal Gold, expressed in E. coli TG1) VH: QVQLQQSGPGLVKPSQTLSLTCAISGDSVSSNSAAWSWIRQSPGRGLEWLGMIFYRSKWNNDYAVSVKSRITINPDTSKNQFSLQLNSVTPEDTAVYYCARVNANGYYAYVDLWGQGTLVTVSS VL: DIQMTQSPSSLSASVGDRVTITCRASQPIYNSLSWYQQKPGKAPKLLIYGVSNLQSGVPSRFSGSGSGTDFTLTISSLQPEDFAVYYCLQVDNLPITFGQGTKVEIKR | no binding | 25.2 | 115 | 202 | 792 | 0 | 79
5 | TP-3A4 Fab (Fab, V domains shown, Human Fab from HuCal Gold, expressed in E. coli TG1) VH: QVQLVESGGGLVQPGGSLRLSCAASGFTFSSYWMHWVRQAPGKGLEWVSSISYDSSNTYYADSVKGRFTISRDNSKNTLYLQMNSLRAEDTAVYYCARYGGMDYWGQGTLVTVSS VL: DIELTQPPSVSVAPGQTARISCSGDNLRDKYASWYQQKPGQAPVLVIYSKSERPSGIPERFSGSNSGNTATLTISGTQAEDEADYYCSSYTLNPNLNYVFGGGTKLTVLG | no binding | 23.7 | 21.6 | 327 | 42.8 | 0 | 72.3
6 | TP-3G3 Fab (Fab, V domains shown, Human Fab from HuCal Gold, expressed in E. coli TG1) VH: QVQLVESGGGLVQPGGSLRLSCAASGFTFSSYSMSWVRQAPGKGLEWVSSISSSSSNTYYGDSVKGRFTISRDNSKNTLYLQMNSLRAEDTAVYYCARMHYKGMDIWGQGTLVTVSS VL: DIQMTQSPSSLSASVGDRVTITCRASQNIHSHLNWYQQKPGKAPKLLIYDASSLQSGVPSRFSGSGSGTDFTLTISSLQPEDFAVYYCQQYYDYPLTFGQGTKVEIKR | no binding | 25.7 | 16 | 47.1 | 33.6 | 15 | 70.7
